Experiments:
[1] = molecular target: VH1VL1-CD8ATD-CD137CSD-CD3zSSD fusion
[2] = molecular target: VH2VL1-CD8ATD-CD137CSD-CD3zSSD fusion
[3] = molecular target: VL1VH3-CD8ATD-CD137CSD-CD3zSSD fusion
[4] = molecular target: VH3VL1-CD8ATD-CD137CSD-CD3zSSD fusion
Sequence of VH3VL1-CD8ATD-CD137CSD-CD3zSSD fusion (chain, as listed by the source): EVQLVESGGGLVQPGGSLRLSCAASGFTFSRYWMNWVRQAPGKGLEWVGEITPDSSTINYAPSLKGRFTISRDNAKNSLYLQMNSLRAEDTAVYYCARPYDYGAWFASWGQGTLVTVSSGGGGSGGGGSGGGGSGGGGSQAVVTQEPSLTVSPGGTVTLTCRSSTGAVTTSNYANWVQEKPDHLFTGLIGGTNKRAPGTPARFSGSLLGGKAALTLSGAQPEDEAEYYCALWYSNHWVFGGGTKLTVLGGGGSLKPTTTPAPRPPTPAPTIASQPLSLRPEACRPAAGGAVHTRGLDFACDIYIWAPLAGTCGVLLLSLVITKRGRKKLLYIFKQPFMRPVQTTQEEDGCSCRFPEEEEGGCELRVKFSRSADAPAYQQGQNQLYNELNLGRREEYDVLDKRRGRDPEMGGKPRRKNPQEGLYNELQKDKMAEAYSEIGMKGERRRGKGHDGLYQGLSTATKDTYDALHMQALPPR

Sequence of VH1VL1-CD8ATD-CD137CSD-CD3zSSD fusion (chain, as listed by the source): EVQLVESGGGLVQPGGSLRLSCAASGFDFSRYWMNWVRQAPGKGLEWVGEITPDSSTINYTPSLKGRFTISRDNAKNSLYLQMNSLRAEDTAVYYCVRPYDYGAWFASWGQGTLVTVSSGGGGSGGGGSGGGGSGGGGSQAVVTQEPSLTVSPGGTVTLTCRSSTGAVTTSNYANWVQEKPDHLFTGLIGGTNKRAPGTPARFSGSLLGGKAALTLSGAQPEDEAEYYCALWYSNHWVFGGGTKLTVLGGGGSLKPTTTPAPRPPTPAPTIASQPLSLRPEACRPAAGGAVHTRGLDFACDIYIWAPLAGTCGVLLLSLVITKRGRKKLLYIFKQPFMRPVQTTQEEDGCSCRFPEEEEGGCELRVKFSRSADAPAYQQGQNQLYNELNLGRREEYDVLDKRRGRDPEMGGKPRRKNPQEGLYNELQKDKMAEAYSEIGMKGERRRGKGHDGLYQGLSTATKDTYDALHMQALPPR
Sequence of VH2VL1-CD8ATD-CD137CSD-CD3zSSD fusion (chain, as listed by the source): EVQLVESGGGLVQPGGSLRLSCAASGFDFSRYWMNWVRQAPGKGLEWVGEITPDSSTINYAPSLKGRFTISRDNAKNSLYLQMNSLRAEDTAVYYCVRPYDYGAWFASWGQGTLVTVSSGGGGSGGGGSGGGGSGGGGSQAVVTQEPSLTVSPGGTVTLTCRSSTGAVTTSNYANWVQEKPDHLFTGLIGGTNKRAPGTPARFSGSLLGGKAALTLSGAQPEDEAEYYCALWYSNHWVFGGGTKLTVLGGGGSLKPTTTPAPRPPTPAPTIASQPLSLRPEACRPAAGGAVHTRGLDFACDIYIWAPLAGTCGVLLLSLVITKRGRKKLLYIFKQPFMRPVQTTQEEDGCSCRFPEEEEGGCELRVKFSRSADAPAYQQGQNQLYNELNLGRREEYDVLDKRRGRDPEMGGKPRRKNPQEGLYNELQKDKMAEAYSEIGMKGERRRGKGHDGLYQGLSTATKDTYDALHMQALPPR
Sequence of VL1VH3-CD8ATD-CD137CSD-CD3zSSD fusion (chain, as listed by the source): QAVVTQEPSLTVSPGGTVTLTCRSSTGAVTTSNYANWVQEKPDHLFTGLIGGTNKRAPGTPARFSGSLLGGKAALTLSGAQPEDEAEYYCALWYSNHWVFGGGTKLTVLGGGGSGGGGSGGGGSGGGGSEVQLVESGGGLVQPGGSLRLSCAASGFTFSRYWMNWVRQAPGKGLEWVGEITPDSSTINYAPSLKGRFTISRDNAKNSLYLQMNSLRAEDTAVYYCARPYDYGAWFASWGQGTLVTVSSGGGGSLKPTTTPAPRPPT

For “anti-CD20 (GA101) D246A P329G IgG1 (antibody)”, the EC50 of NFAT-luciferase activation of anti-P329G CAR Jurkat cells, WSUDLCL2 target cells (5:1); VH1 x VL1 [1] was 8.14 pM, the EC50 of NFAT-luciferase activation of anti-P329G CAR Jurkat cells, WSUDLCL2 target cells (5:1); table row VH2 x VL1 [2] was 10.4 pM and the EC50 of NFAT-luciferase activation of anti-P329G CAR Jurkat cells, WSUDLCL2 target cells (5:1); VL1 x VH 3 [3] was 6.19 pM. It also gave an EC50 of NFAT-luciferase activation of anti-P329G CAR Jurkat cells, WSUDLCL2 target cells (5:1); VH3 x VL1 [4] of 5.82 pM.

From US20240269176A1
